Reference: patent US11833164B2, “Methods of treating Fabry disease in patients having a mutation in the GLA gene” (Amicus Therapeutics, Inc., priority 2019, dated 2023)
Changes are numbered by the printed parent chain. Numbers in names are those of the source.

B1: F169V (protein)
chain: MQLRNPELHLGCALALRFLALVSWDIPGARALDNGLARTPTMGWLHWERFMCNLDCQEEPDSCISEKLFMEMAELMVSEGWKDAGYEYLCIDDCWMAPQRDSEGRLQADPQRFPHGIRQLANYVHSKGLKLGIYADVGNKTCAGFPGSFGYYDIDAQTFADWGVDLLKVDGCYCDSLENLADGYKHMSLALNRTGRSIVYSCEWPLYMWPFQKPNYTEIRQYCNHWRNFADIDDSWKSIKSILDWTSFNQERIVDVAGPGGWNDPDMLVIGNFGLSWNQQVTQMALWAIMAAPLFMSNDLRHISPQAKALLQDKDVIAINQDPLGKQGYQLRQGDNFEVWERPLSGLAWAVAMINRQEIGGPRSYTIAVASLGKGVACNPACFITQLLPVKRKLGFYEWTSRLRSHINPTGTVLLQLENTMQMSLKDLL
B2: E178G (protein)
chain: B1 chain with V169F, E178G
B3: L177W (protein)
chain: B1 chain with V169F, L177W
B4: Y173F (protein)
chain: B1 chain with V169F, Y173F
B5: F169Y (protein)
chain: B1 chain with V169Y
B6: D175G (protein)
chain: B1 chain with V169F, D175G
B7: G171V (protein)
chain: B1 chain with V169F, G171V
B8: D175H (protein)
chain: B1 chain with V169F, D175H
B9: D175V (protein)
chain: B1 chain with V169F, D175V
B10: D175Y (protein)
chain: B1 chain with V169F, D175Y
B11: L177M (protein)
chain: B1 chain with V169F, L177M
B12: L177V (protein)
chain: B1 chain with V169F, L177V
B13: Y173S (protein)
chain: B1 chain with V169F, Y173S
B14: S176R (protein)
chain: B1 chain with V169F, S176R
B15: L177S (protein)
chain: B1 chain with V169F, L177S
B16: Y173C (protein)
chain: B1 chain with V169F, Y173C
B17: Y173H (protein)
chain: B1 chain with V169F, Y173H
B18: L177F (protein)
chain: B1 chain with V169F, L177F
B19: G171A (protein)
chain: B1 chain with V169F, G171A
B20: E178A (protein)
chain: B1 chain with V169F, E178A
B21: S176C (protein)
chain: B1 chain with V169F, S176C

tested on: mutant form of α-Gal A expressed in HEK-293 cells; experiment: HEK assay (GLP HEK / Migalastat Amenability Assay): α-Gal A activity in lysates of transiently transfected HEK-293 cells incubated with or without 10 μM migalastat; type: cell-based, human; conditions: 10 μM migalastat versus baseline
How it was run: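 HEK-293 cells transiently transfected with mutant α-Gal A and incubated with or without 10 μM migalastat; lysate activity given as nmol free 4-MU released per mg protein per hour. Values are mean±SEM.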

Molecule | Absolute increase (% WT)
B1 | 42.8
B2 | 18.6
B3 | 37.6
B4 | 21.2
B5 | 30.2
B6 | 18.1
B7 | 6.4
B8 | 26.4
B9 | 19.7
B10 | 22.9
B11 | 27.9
B12 | 22.9
B13 | 14.8
B14 | 22.0
B15 | 35.9
B16 | 29.3
B17 | 18.3
B18 | 38.7
B19 | 26.4
B20 | 14.5
B21 | 16.2

same assay, conditions: 10 μM migalastat α-Gal A activity relative to baseline

Molecule | Relative increase
B1 | 5.6
B2 | 1.5
B3 | 1.7
B4 | 1.3
B5 | 1.6
B6 | 1.2
B7 | 3.6
B8 | 1.4
B9 | 1.6
B10 | 1.8
B11 | 1.4
B12 | 1.3
B13 | 1.2
B14 | 1.3
B15 | 1.7
B16 | 1.6
B17 | 1.3
B18 | 1.9
B19 | 1.4
B20 | 1.2
B21 | 1.2

same assay, conditions: 10 μM migalastat, 5 days; percentage of baseline wild-type α-Gal A activity; mean ± SEM

Molecule | 10 μM migalastat α-Gal A activity (% WT)
B1 | 53 ± 2.1
B2 | 61.7 ± 6.4
B3 | 88.2 ± 2
B4 | 97.7 ± 4.7
B5 | 75.5 ± 3.6
B6 | 92.8 ± 6.2
B7 | 9.2 ± 0.9
B8 | 87.1 ± 3.9
B9 | 53.5 ± 2.5
B10 | 52.3 ± 1.9
B11 | 97.4 ± 2.7
B12 | 91.8 ± 2.8
B13 | 76.2 ± 3.3
B14 | 88.3 ± 3.3
B15 | 87.2 ± 4.5
B16 | 80.5 ± 3.3
B17 | 80.2 ± 4.6
B18 | 84 ± 2.3
B19 | 84 ± 5.7
B20 | 84.8 ± 6.8
B21 | 79.5 ± 5.1

same assay, conditions: absence of migalastat; percentage of baseline wild-type α-Gal A activity; mean ± SEM

Molecule | Baseline α-Gal A activity (% WT)
B1 | 10.2 ± 0.9
B2 | 43.1 ± 4.7
B3 | 50.5 ± 2.6
B4 | 76.5 ± 4.2
B5 | 45.3 ± 2.8
B6 | 74.7 ± 6.7
B7 | 2.8 ± 0.2
B8 | 60.7 ± 3.4
B9 | 33.7 ± 2.2
B10 | 29.4 ± 2.4
B11 | 69.5 ± 2.3
B12 | 68.9 ± 3.2
B13 | 61.4 ± 3.3
B14 | 66.3 ± 2
B15 | 51.4 ± 1.7
B16 | 51.1 ± 3.6
B17 | 61.9 ± 3.4
B18 | 45.3 ± 2.1
B19 | 57.6 ± 2.8
B20 | 70.3 ± 4.9
B21 | 63.3 ± 3.9

same assay, conditions: lysates of HEK-293 cells transfected with the mutant form, incubated 5 days in the absence of migalastat; mean ± SEM

Molecule | Baseline α-Gal A activity [nmol/mg/h]
B1 | 2870 ± 239
B2 | 17470 ± 2323
B3 | 17321 ± 1025
B4 | 26479 ± 1523
B5 | 14358 ± 1768
B6 | 23065 ± 2315
B7 | 856 ± 62
B8 | 18529 ± 1174
B9 | 10430 ± 915
B10 | 8991 ± 838
B11 | 23730 ± 946
B12 | 23616 ± 1282
B13 | 21751 ± 1625
B14 | 22675 ± 886
B15 | 17445 ± 533
B16 | 17669 ± 1240
B17 | 21234 ± 879
B18 | 15605 ± 911
B19 | 19081 ± 1801
B20 | 23910 ± 1511
B21 | 20097 ± 1126

same assay, conditions: lysates of HEK-293 cells transfected with the mutant form, incubated 5 days with 10 μM migalastat; mean ± SEM

Molecule | 10 μM migalastat α-Gal A activity [nmol/mg/h]
B1 | 16145 ± 1680
B2 | 26566 ± 4263
B3 | 30075 ± 867
B4 | 33158 ± 657
B5 | 23459 ± 2391
B6 | 28273 ± 1968
B7 | 3111 ± 411
B8 | 26201 ± 994
B9 | 16384 ± 1039
B10 | 15923 ± 778
B11 | 33080 ± 829
B12 | 31347 ± 1132
B13 | 26270 ± 994
B14 | 30159 ± 1226
B15 | 29868 ± 1909
B16 | 27924 ± 1225
B17 | 27455 ± 1147
B18 | 28893 ± 1210
B19 | 27514 ± 2486
B20 | 29125 ± 2326
B21 | 24777 ± 960
